In paper PMC13070007 (2025):

Tests used:
Experiment in all cases: SPR
28K30K32R = molecular target: 28K30K32R
KFNM = molecular target: KFNM
30K32R56G = molecular target: 30K32R56G
30K32R113R = molecular target: 30K32R113R

B1: TRBC1 protein (recombinant) (natural protein)
chain: DLNKVFPPEVAVFEPSEAEISHTQKATLVCLATGFFPDHVELSWWVNGKEVHSGVSTDPQPLKEQPALNDSRYCLSSRLRVSATFWQNPRNHFRCQVQFYGLSENDEWTQDRAKPVTQIVSAEAWGRADCGFTSVSYQQGVLSA
28K30K32R
  Kd: 0.952 µM
KFNM
  Kd: 0.173 µM

B2: TRBC2 protein (recombinant) (natural protein)
chain: DLKNVFPPKVAVFEPSEAEISHTQKATLVCLATGFYPDHVELSWWVNGKEVHSGVSTDPQPLKEQPALNDSRYCLSSRLRVSATFWQNPRNHFRCQVQFYGLSENDEWTQDRAKPVTQIVSAEAWGRADCGFTSESYQQGVLSA
30K32R56G
  Kd: 0.046 µM
30K32R113R
  Kd: 0.041 µM
28K30K32R
  Kd: 0.03 µM
KFNM
  Kd: 0.061 µM
